T1: human CD39 expressed on the cell surface (human, UniProt P49961 1-510)
T1 construct: full-length human CD39 transfected into CHO-K1, or endogenous human CD39 on primary cells and cell lines, or human CD39 of knock-in mice; also called Human CD39-CHO-K1; cellular human CD39
T1 sequence: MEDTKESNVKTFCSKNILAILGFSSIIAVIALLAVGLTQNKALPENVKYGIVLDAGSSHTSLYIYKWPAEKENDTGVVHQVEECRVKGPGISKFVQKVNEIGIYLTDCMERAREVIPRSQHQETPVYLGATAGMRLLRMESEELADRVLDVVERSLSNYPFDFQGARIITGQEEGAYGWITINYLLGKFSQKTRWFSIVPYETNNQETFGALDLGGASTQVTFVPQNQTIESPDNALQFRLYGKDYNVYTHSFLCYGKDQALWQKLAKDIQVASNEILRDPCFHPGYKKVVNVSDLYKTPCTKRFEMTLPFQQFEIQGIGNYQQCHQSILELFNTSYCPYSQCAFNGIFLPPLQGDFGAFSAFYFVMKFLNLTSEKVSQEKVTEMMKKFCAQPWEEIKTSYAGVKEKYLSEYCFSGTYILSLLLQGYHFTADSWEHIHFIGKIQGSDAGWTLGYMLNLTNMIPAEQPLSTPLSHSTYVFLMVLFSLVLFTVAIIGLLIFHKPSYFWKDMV

T2: soluble His-tagged human CD39 ECD protein (human, UniProt P49961 38-478)
T2 construct: also called human CD39 ECD His-tagged antigen; Sino Biological Cat. No. 16020-H08B
T2 sequence: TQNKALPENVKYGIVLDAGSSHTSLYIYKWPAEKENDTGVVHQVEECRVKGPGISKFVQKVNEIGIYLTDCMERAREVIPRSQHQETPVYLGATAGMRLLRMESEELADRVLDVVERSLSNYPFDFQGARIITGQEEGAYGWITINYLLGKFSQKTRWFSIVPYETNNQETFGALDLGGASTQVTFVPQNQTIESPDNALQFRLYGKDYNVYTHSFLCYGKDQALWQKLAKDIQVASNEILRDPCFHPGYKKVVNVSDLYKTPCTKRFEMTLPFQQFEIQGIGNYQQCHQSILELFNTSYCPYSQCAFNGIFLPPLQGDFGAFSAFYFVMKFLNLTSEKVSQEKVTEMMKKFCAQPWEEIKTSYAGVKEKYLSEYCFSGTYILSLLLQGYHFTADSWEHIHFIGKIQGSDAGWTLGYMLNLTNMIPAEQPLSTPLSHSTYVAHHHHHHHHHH

T3: recombinant human CD39 (soluble) (human, UniProt P49961 38-478, limits assumed)
T3 sequence (looked up): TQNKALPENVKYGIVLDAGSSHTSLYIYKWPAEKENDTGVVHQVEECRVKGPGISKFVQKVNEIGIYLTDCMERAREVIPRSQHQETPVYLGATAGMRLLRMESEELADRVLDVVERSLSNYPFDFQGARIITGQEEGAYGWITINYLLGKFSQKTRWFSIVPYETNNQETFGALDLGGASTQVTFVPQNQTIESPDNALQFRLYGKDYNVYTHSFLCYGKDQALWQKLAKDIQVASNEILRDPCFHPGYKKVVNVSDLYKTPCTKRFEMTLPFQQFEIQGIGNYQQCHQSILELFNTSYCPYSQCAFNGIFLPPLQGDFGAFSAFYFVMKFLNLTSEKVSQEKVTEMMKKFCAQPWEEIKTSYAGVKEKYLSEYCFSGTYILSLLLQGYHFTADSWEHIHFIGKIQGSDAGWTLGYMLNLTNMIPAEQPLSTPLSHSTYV

T4: cynomolgus monkey CD39 expressed on HEK-293 cells (cynomolgus monkey, UniProt P49961 5-510 (human entry))
T4 construct: also called Cynomolgus Monkey CD39-HEK293
T4 chain: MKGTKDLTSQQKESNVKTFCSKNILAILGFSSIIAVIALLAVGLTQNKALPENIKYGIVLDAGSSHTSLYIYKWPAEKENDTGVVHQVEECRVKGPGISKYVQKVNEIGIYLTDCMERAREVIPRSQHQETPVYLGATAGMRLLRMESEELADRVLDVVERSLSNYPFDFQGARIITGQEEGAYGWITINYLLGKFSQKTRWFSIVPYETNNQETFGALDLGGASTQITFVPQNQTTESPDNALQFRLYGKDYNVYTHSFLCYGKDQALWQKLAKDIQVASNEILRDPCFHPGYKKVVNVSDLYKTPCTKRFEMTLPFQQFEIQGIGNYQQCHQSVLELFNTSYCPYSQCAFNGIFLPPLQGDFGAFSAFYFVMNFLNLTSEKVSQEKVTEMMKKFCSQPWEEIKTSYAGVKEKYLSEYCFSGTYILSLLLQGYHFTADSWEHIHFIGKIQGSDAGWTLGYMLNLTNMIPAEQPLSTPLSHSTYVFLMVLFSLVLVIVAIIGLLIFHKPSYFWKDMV

B1: hu39.5_IGG1.AA (antibody, human IgG1, kappa, L234A L235A)
heavy: not shown
light: DTVLTQSPASLAVSPGQRATITCRASEGVKSYMHWYQQKPGQPPKLLIYKASNLASGVPARFSGSGSGTDFTLTINPVEADDTANYYCQQSWNDPTFGQGTKLEIKRTVAAPSVFIFPPSDEQLKSGTASVVCLLNNFYPREAKVQWKVDNALQSGNSQESVTEQDSKDSTYSLSSTLTLSKADYEKHKVYACEVTHQGLSSPVTKSFNRGEC
notes: humanized variant of antibody 39, human IgG1 L234A/L235A
B2: hu39.5_IGG4.P (antibody, human IgG4 S228P, kappa)
heavy: not shown
light: B1 light
notes: humanized variant of antibody 39 (VH3 + VL1 with I2T), IgG4 (S228P)
B3: hu31.4_IGG1.AA (antibody, human IgG1, kappa, L234A L235A)
heavy: not shown
light: DIVLTQSPALAVSPGQRATITCRTQQTVDHYGTTYMNWYQQKPGQPPKLLIYLASSLASGVPARFSGSGSGTDFTLTINPVEADDTANYYCQQSRNLWTFGGGTKVEIKRTVAAPSVFIFPPSDEQLKSGTASVVCLLNNFYPREAKVQWKVDNALQSGNSQESVTEQDSKDSTYSLSSTLTLSKADYEKHKVYACEVTHQGLSSPVTKSFNRGEC
notes: humanized variant of antibody 31, human IgG1 L234A/L235A

Legend:
[1] = target: T1, human CD39 expressed on the cell surface; experiment: flow cytometry on human PBMCs gated on CD14+ monocytes, 0 uM ATP (N = 8)
[2] = target: T1, human CD39 expressed on the cell surface; experiment: flow cytometry on human PBMCs gated on CD19+ B cells, 0 uM ATP (N = 8)
[3] = target: T1, human CD39 expressed on the cell surface; experiment: flow cytometry on human PBMCs gated on CD14+ monocytes, 400 uM ATP (N = 6)
[4] = target: T1, human CD39 expressed on the cell surface; experiment: flow cytometry on human PBMCs gated on CD19+ B cells, one donor, 0 µM ATP
[5] = target: T2, soluble His-tagged human CD39 ECD …; experiment: SPR, monovalent affinity mode; average over seven surface densities
[6] = target: T2, soluble His-tagged human CD39 ECD …; experiment: SPR, bivalent avidity mode; average over six surface densities; average of different density surfaces; CD39 ECD immobilized
[7] = target: T1, human CD39 expressed on the cell surface; experiment: cell-based or functional assay
[8] = target: T1, human CD39 expressed on the cell surface; experiment: flow cytometry on human PBMCs gated on CD19+ B cells, 400 uM ATP (N = 6)
[9] = target: T2, soluble His-tagged human CD39 ECD …; experiment: SPR, bivalent avidity mode (CD39 ECD immobilized, antibody analyte); Rmax 524.16 RU surface
[10] = target: T1, human CD39 expressed on the cell surface; experiment: cell-based or functional assay; remark: listed apart in the source
[11] = target: T1, human CD39 expressed on the cell surface; experiment: cell-based or functional assay; remark: listed apart in the source
[12] = target: T1, human CD39 expressed on the cell surface; experiment: flow cytometry on human PBMCs gated on CD19+ B cells, one donor, 400 µM ATP
[13] = target: T3, recombinant human CD39 (soluble); experiment: cell-based or functional assay
[14] = target: T2, soluble His-tagged human CD39 ECD …; experiment: SPR, bivalent avidity mode (CD39 ECD immobilized, antibody analyte); Rmax 420.45 RU surface
[15] = target: T1, human CD39 expressed on the cell surface; experiment: flow cytometry on purified human CD14+ monocytes, 400 uM ATP
[16] = target: T1, human CD39 expressed on the cell surface; experiment: cell-based or functional assay; remark: listed apart in the source
[17] = target: T1, human CD39 expressed on the cell surface; experiment: flow cytometry on purified human CD14+ monocytes, 0 uM ATP
[18] = target: T2, soluble His-tagged human CD39 ECD …; experiment: SPR (Biacore 8K), antibody captured via anti-human Fc, CD39 ECD analyte
[19] = target: T1, human CD39 expressed on the cell surface; experiment: FACS on CHO-K1 cells overexpressing human CD39
[20] = target: T1, human CD39 expressed on the cell surface; experiment: cell-based or functional assay; remark: listed apart in the source
[21] = target: T4, cynomolgus monkey CD39 expressed on …; experiment: FACS on HEK293 cells overexpressing cynomolgus CD39
[22] = target: T2, soluble His-tagged human CD39 ECD …; experiment: SPR, bivalent avidity mode; average over six surface densities
[23] = target: T2, soluble His-tagged human CD39 ECD …; experiment: SPR, bivalent avidity mode (CD39 ECD immobilized, antibody analyte); Rmax 896.01 RU surface
[24] = target: T1, human CD39 expressed on the cell surface; experiment: competition flow cytometry on MOLP-8 cells, competitor hu39.1_IGG4.P-AF647

Row | Binder | EC50 [2] | EC50 (read off the curve) [4] | Kd [5] | IC50, CD39 enzymatic inhibition on human monocytes, 20 uM ATP [7] | Max Inhibition (%), human monocytes, 20 uM ATP [7] | EC50 [8] | IC50, CD39 enzymatic inhibition on THP-1 cells, 20 uM ATP [10] | Max Inhibition (%), THP-1 cells [10] | IC50, CD39 enzymatic inhibition on human monocytes, 400 uM ATP [11] | Max Inhibition (%), human monocytes, 400 uM ATP [11] | EC50 (read off the curve) [12] | IC50, inhibition of recombinant CD39 enzymatic activity, 20 uM ATP [13] | Max Inhibition (%), recombinant CD39, 20 uM ATP [13] | other results
1 | B1 | 0.2 nM | ~0.2 nM | 0.24 nM | 0.1 nM | 69% | 0.3 nM | 0.075 nM | 55% | 0.083 nM | 62% | ~0.2 nM | 0.19 nM | 80% | EC50 [1]: 0.3 nM; EC50 [3]: 0.5 nM; Kd [6]: 0.01 nM; Kd [9]: 0.00656 nM; Kd [14]: 0.00998 nM
2 | B2 |  |  |  | 0.15 nM | 72% |  | 0.062 nM | 83% | 0.2 nM | 60% |  |  |  | EC50 [15]: 10 nM; IC50, CD39 enzymatic inhibition on SK-MEL-5 cells, 20 uM ATP [16]: 0.14 nM; Max Inhibition (%), SK-MEL-5 cells [16]: 66%; EC50 [17]: 3.9 nM; Kd [18]: 0.121 nM; EC50 [19]: 0.44 nM; Human THP-1 CD39 inhibition IC50 [20]: 0.1 nM; EC50 [21]: 0.088 nM
3 | B3 | 1 nM | ~2 nM | 0.19 nM | 1 nM | 69% | 1 nM | 0.53 nM | 62% | 0.7 nM | 63% | ~2 nM | 0.3 nM | 86% | Kd [22]: 0.3 nM; Kd [23]: 0.105 nM; Max Competition [24]: -22%
